Test results taken from patent publication US20240400654A1.
Where “and” joins values, the source holds several entries; their conditions need not be identical. Equal values may be shown once.

What was measured:
[1] = target: HRgpA-6H (Porphyromonas gingivalis) (UniProt P28784); assay: ELISA on coated HRgpA-6H, OD relative to parental Fab
[2] = target: HRgpA-6H (Porphyromonas gingivalis) (UniProt P28784); assay: ELISA, FASEBA Fab supernatant on coated HRgpA-6H
[3] = target: HRgpA-6H (Porphyromonas gingivalis) (UniProt P28784); assay: ELISA, FASEBA screening, coated HRgpA-6H 0.0625 ug/ml
[4] = target: HRgpA-6H (Porphyromonas gingivalis) (UniProt P28784); assay: ELISA, FASEBA screening, coated HRgpA-6H; variant OD over parental WT Fab OD

Binder	Ratio OD(Variant)/OD(WT) [1]	OD450 nm [2]	OD450 nm [3]	Ratio OD(Variant)/OD(WT) [4]
KB001 mouse Fab variant VL I98V (Fab, V domains shown) VH: EVQLKQSGPGLVAPSQSLSITCTVSGFSLSIYSVHWVRQPPGKGLEWLGMIWGGGSSDYNSALKSRLSISKDNSKSQVFLKMNSLQTDDTAMYYCARNGNFYAMDYWGQGTSVTVSS VL: QIVLTQSPAIMSASLGERVTMTCTASSSVSSSFLHWYQQKPGSSPQLWIYSTSNLASGVPARFSGSGSGTSYSLTISSMEAEDAATYYCHQYHHSPYVYTFGGGTKLEIK	0.951 fold and 0.958 fold and 0.899 fold	0.832 and 0.838 and 0.787		
KB001 mouse Fab variant VL T100V (Fab, V domains shown) VH: EVQLKQSGPGLVAPSQSLSITCTVSGFSLSIYSVHWVRQPPGKGLEWLGMIWGGGSSDYNSALKSRLSISKDNSKSQVFLKMNSLQTDDTAMYYCARNGNFYAMDYWGQGTSVTVSS VL: QIVLTQSPAIMSASLGERVTMTCTASSSVSSSFLHWYQQKPGSSPQLWIYSTSNLASGVPARFSGSGSGTSYSLTISSMEAEDAATYYCHQYHHSPYIYVFGGGTKLEIK	0.881 fold and 0.818 fold	0.461 and 0.428		
KB001 parental mouse Fab FASEBA variant VH S65L (Fab, V domains shown) VH: EVQLKQSGPGLVAPSQSLSITCTVSGFSLSIYSVHWVRQPPGKGLEWLGMIWGGGSSDYNSALKLRLSISKDNSKSQVFLKMNSLQTDDTAMYYCARNGNFYAMDYWGQGTSVTVSS VL: QIVLTQSPAIMSASLGERVTMTCTASSSVSSSFLHWYQQKPGSSPQLWIYSTSNLASGVPARFSGSGSGTSYSLTISSMEAEDAATYYCHQYHHSPYIYTFGGGTKLEIK			0.728	0.88
KB001 parental mouse Fab FASEBA variant VH K64H (Fab, V domains shown) VH: EVQLKQSGPGLVAPSQSLSITCTVSGFSLSIYSVHWVRQPPGKGLEWLGMIWGGGSSDYNSALHSRLSISKDNSKSQVFLKMNSLQTDDTAMYYCARNGNFYAMDYWGQGTSVTVSS VL: QIVLTQSPAIMSASLGERVTMTCTASSSVSSSFLHWYQQKPGSSPQLWIYSTSNLASGVPARFSGSGSGTSYSLTISSMEAEDAATYYCHQYHHSPYIYTFGGGTKLEIK			0.788 and 0.806 and 0.73	0.953 and 0.975 and 0.883
KB001 parental mouse Fab FASEBA variant VH K64D (Fab, V domains shown) VH: EVQLKQSGPGLVAPSQSLSITCTVSGFSLSIYSVHWVRQPPGKGLEWLGMIWGGGSSDYNSALDSRLSISKDNSKSQVFLKMNSLQTDDTAMYYCARNGNFYAMDYWGQGTSVTVSS VL: QIVLTQSPAIMSASLGERVTMTCTASSSVSSSFLHWYQQKPGSSPQLWIYSTSNLASGVPARFSGSGSGTSYSLTISSMEAEDAATYYCHQYHHSPYIYTFGGGTKLEIK			0.781	0.944
KB001 parental mouse Fab FASEBA variant VH S65G (Fab, V domains shown) VH: EVQLKQSGPGLVAPSQSLSITCTVSGFSLSIYSVHWVRQPPGKGLEWLGMIWGGGSSDYNSALKGRLSISKDNSKSQVFLKMNSLQTDDTAMYYCARNGNFYAMDYWGQGTSVTVSS VL: QIVLTQSPAIMSASLGERVTMTCTASSSVSSSFLHWYQQKPGSSPQLWIYSTSNLASGVPARFSGSGSGTSYSLTISSMEAEDAATYYCHQYHHSPYIYTFGGGTKLEIK			0.825	0.998
KB001 parental mouse Fab FASEBA variant VH S65H (Fab, V domains shown) VH: EVQLKQSGPGLVAPSQSLSITCTVSGFSLSIYSVHWVRQPPGKGLEWLGMIWGGGSSDYNSALKHRLSISKDNSKSQVFLKMNSLQTDDTAMYYCARNGNFYAMDYWGQGTSVTVSS VL: QIVLTQSPAIMSASLGERVTMTCTASSSVSSSFLHWYQQKPGSSPQLWIYSTSNLASGVPARFSGSGSGTSYSLTISSMEAEDAATYYCHQYHHSPYIYTFGGGTKLEIK			0.823 and 0.767	0.995 and 0.927
KB001 mouse Fab variant VL T100P (Fab, V domains shown) VH: EVQLKQSGPGLVAPSQSLSITCTVSGFSLSIYSVHWVRQPPGKGLEWLGMIWGGGSSDYNSALKSRLSISKDNSKSQVFLKMNSLQTDDTAMYYCARNGNFYAMDYWGQGTSVTVSS VL: QIVLTQSPAIMSASLGERVTMTCTASSSVSSSFLHWYQQKPGSSPQLWIYSTSNLASGVPARFSGSGSGTSYSLTISSMEAEDAATYYCHQYHHSPYIYPFGGGTKLEIK	0.879 fold	0.46		
KB001 parental mouse Fab FASEBA variant VH K64L (Fab, V domains shown) VH: EVQLKQSGPGLVAPSQSLSITCTVSGFSLSIYSVHWVRQPPGKGLEWLGMIWGGGSSDYNSALLSRLSISKDNSKSQVFLKMNSLQTDDTAMYYCARNGNFYAMDYWGQGTSVTVSS VL: QIVLTQSPAIMSASLGERVTMTCTASSSVSSSFLHWYQQKPGSSPQLWIYSTSNLASGVPARFSGSGSGTSYSLTISSMEAEDAATYYCHQYHHSPYIYTFGGGTKLEIK			0.664	0.803
KB001 parental mouse Fab FASEBA variant VH K64E (Fab, V domains shown) VH: EVQLKQSGPGLVAPSQSLSITCTVSGFSLSIYSVHWVRQPPGKGLEWLGMIWGGGSSDYNSALESRLSISKDNSKSQVFLKMNSLQTDDTAMYYCARNGNFYAMDYWGQGTSVTVSS VL: QIVLTQSPAIMSASLGERVTMTCTASSSVSSSFLHWYQQKPGSSPQLWIYSTSNLASGVPARFSGSGSGTSYSLTISSMEAEDAATYYCHQYHHSPYIYTFGGGTKLEIK			0.789	0.954
KB001 parental mouse Fab FASEBA variant VH S65R (Fab, V domains shown) VH: EVQLKQSGPGLVAPSQSLSITCTVSGFSLSIYSVHWVRQPPGKGLEWLGMIWGGGSSDYNSALKRRLSISKDNSKSQVFLKMNSLQTDDTAMYYCARNGNFYAMDYWGQGTSVTVSS VL: QIVLTQSPAIMSASLGERVTMTCTASSSVSSSFLHWYQQKPGSSPQLWIYSTSNLASGVPARFSGSGSGTSYSLTISSMEAEDAATYYCHQYHHSPYIYTFGGGTKLEIK			0.794	0.96
KB001 mouse Fab variant VL T100I (Fab, V domains shown) VH: EVQLKQSGPGLVAPSQSLSITCTVSGFSLSIYSVHWVRQPPGKGLEWLGMIWGGGSSDYNSALKSRLSISKDNSKSQVFLKMNSLQTDDTAMYYCARNGNFYAMDYWGQGTSVTVSS VL: QIVLTQSPAIMSASLGERVTMTCTASSSVSSSFLHWYQQKPGSSPQLWIYSTSNLASGVPARFSGSGSGTSYSLTISSMEAEDAATYYCHQYHHSPYIYIFGGGTKLEIK	0.942 fold	0.493		
KB001 parental mouse Fab FASEBA variant VH S65F (Fab, V domains shown) VH: EVQLKQSGPGLVAPSQSLSITCTVSGFSLSIYSVHWVRQPPGKGLEWLGMIWGGGSSDYNSALKFRLSISKDNSKSQVFLKMNSLQTDDTAMYYCARNGNFYAMDYWGQGTSVTVSS VL: QIVLTQSPAIMSASLGERVTMTCTASSSVSSSFLHWYQQKPGSSPQLWIYSTSNLASGVPARFSGSGSGTSYSLTISSMEAEDAATYYCHQYHHSPYIYTFGGGTKLEIK			0.74	0.895
KB001 parental mouse Fab FASEBA variant VH S65P (Fab, V domains shown) VH: EVQLKQSGPGLVAPSQSLSITCTVSGFSLSIYSVHWVRQPPGKGLEWLGMIWGGGSSDYNSALKPRLSISKDNSKSQVFLKMNSLQTDDTAMYYCARNGNFYAMDYWGQGTSVTVSS VL: QIVLTQSPAIMSASLGERVTMTCTASSSVSSSFLHWYQQKPGSSPQLWIYSTSNLASGVPARFSGSGSGTSYSLTISSMEAEDAATYYCHQYHHSPYIYTFGGGTKLEIK			0.814	0.984
KB001 parental mouse Fab FASEBA variant VH S65Y (Fab, V domains shown) VH: EVQLKQSGPGLVAPSQSLSITCTVSGFSLSIYSVHWVRQPPGKGLEWLGMIWGGGSSDYNSALKYRLSISKDNSKSQVFLKMNSLQTDDTAMYYCARNGNFYAMDYWGQGTSVTVSS VL: QIVLTQSPAIMSASLGERVTMTCTASSSVSSSFLHWYQQKPGSSPQLWIYSTSNLASGVPARFSGSGSGTSYSLTISSMEAEDAATYYCHQYHHSPYIYTFGGGTKLEIK			0.724	0.875
KB001 mouse Fab variant VL I98R (Fab, V domains shown) VH: EVQLKQSGPGLVAPSQSLSITCTVSGFSLSIYSVHWVRQPPGKGLEWLGMIWGGGSSDYNSALKSRLSISKDNSKSQVFLKMNSLQTDDTAMYYCARNGNFYAMDYWGQGTSVTVSS VL: QIVLTQSPAIMSASLGERVTMTCTASSSVSSSFLHWYQQKPGSSPQLWIYSTSNLASGVPARFSGSGSGTSYSLTISSMEAEDAATYYCHQYHHSPYRYTFGGGTKLEIK	0.83 fold and 0.825 fold	0.726 and 0.722		
KB001 mouse Fab variant VL I98M (Fab, V domains shown) VH: EVQLKQSGPGLVAPSQSLSITCTVSGFSLSIYSVHWVRQPPGKGLEWLGMIWGGGSSDYNSALKSRLSISKDNSKSQVFLKMNSLQTDDTAMYYCARNGNFYAMDYWGQGTSVTVSS VL: QIVLTQSPAIMSASLGERVTMTCTASSSVSSSFLHWYQQKPGSSPQLWIYSTSNLASGVPARFSGSGSGTSYSLTISSMEAEDAATYYCHQYHHSPYMYTFGGGTKLEIK	0.833 fold	0.729		
KB001 parental mouse Fab FASEBA variant VH K64Q (Fab, V domains shown) VH: EVQLKQSGPGLVAPSQSLSITCTVSGFSLSIYSVHWVRQPPGKGLEWLGMIWGGGSSDYNSALQSRLSISKDNSKSQVFLKMNSLQTDDTAMYYCARNGNFYAMDYWGQGTSVTVSS VL: QIVLTQSPAIMSASLGERVTMTCTASSSVSSSFLHWYQQKPGSSPQLWIYSTSNLASGVPARFSGSGSGTSYSLTISSMEAEDAATYYCHQYHHSPYIYTFGGGTKLEIK			0.789	0.954
KB001 parental mouse Fab FASEBA variant VH K64M (Fab, V domains shown) VH: EVQLKQSGPGLVAPSQSLSITCTVSGFSLSIYSVHWVRQPPGKGLEWLGMIWGGGSSDYNSALMSRLSISKDNSKSQVFLKMNSLQTDDTAMYYCARNGNFYAMDYWGQGTSVTVSS VL: QIVLTQSPAIMSASLGERVTMTCTASSSVSSSFLHWYQQKPGSSPQLWIYSTSNLASGVPARFSGSGSGTSYSLTISSMEAEDAATYYCHQYHHSPYIYTFGGGTKLEIK			0.784	0.948
KB001 parental mouse Fab FASEBA variant VH K64G (Fab, V domains shown) VH: EVQLKQSGPGLVAPSQSLSITCTVSGFSLSIYSVHWVRQPPGKGLEWLGMIWGGGSSDYNSALGSRLSISKDNSKSQVFLKMNSLQTDDTAMYYCARNGNFYAMDYWGQGTSVTVSS VL: QIVLTQSPAIMSASLGERVTMTCTASSSVSSSFLHWYQQKPGSSPQLWIYSTSNLASGVPARFSGSGSGTSYSLTISSMEAEDAATYYCHQYHHSPYIYTFGGGTKLEIK			0.811	0.981
